# Measurements reported in patent US20200095340A1.
# Molecular target: biotinylated human DLL3 protein expressed as a human IgG1 fusion protein (human) (UniProt Q9NYJ7)
# Assay: Octet, biotinylated human DLL3-IgG1 fusion on streptavidin tips, single 50 nM, conditioned medium (relative KD)
# Chain of biotinylated human DLL3 protein expressed as a human IgG1 fusion protein (human) (Q9NYJ7 27-492): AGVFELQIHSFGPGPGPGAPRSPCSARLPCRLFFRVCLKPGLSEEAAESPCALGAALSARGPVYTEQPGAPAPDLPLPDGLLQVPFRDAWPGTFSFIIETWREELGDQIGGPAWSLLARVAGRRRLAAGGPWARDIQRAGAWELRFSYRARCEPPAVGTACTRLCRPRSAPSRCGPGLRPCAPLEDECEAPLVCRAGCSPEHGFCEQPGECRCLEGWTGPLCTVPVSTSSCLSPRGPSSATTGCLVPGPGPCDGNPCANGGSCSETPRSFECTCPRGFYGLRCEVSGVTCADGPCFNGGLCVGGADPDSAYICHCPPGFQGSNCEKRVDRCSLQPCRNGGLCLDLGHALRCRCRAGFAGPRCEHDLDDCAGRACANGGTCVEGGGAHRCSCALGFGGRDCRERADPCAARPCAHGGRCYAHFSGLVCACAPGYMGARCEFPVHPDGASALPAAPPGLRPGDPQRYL
row,Kd,Binder
1,15 nM,"anti-DLL3 trispecific protein, DLL3 binder 3A05 (protein, part only; not given: anti-CD3 fragment and anti-albumin domain, part only) chain, part: EVQLVESGGGLVQPGGSLTLSCAASGSSVSFLSMAWYRQAPGKKRELVAGISEAGSTDYIDSVKGRFTISRDNAKNSVYLQMNSLRAEDTAVYYCYAYRWRTRYTYWGQGTLVTVSSGGGGSGGGSGGGGSGGGSHHHHHH"
2,17 nM,"anti-DLL3 trispecific protein, DLL3 binder 3D08 (protein, part only; not given: anti-CD3 fragment and anti-albumin sdAb, part only) chain, part: EVQLVESGGGLVQPGGSLTLSCAASGSSVRFLSMAWYRQAPGKKRELVAGISANGSTDYIDSVKGRFTISRDNAKNSVYLQMNSLRAEDTAVYYCYAYRWTNRYTYWGQGTLVTVSSGGGGSGGGSGGGGSGGGSHHHHHH"
3,16 nM,"anti-DLL3 trispecific protein, DLL3 binder 3A01 (protein, part only; not given: anti-CD3 fragment and anti-albumin sdAb, part only) chain, part: EVQLVESGGGLVQPGGSLTLSCAASGSSVKFLSMAWYRQAPGKKRELVAGISADGSTDYIDSVKGRFTISRDNAKNSVYLQMNSLRAEDTAVYYCYAYRWTRRYTYWGQGTLVTVSSGGGGSGGGSGGGGSGGGSHHHHHH"
4,16 nM,"anti-DLL3 trispecific protein, DLL3 binder 4H07 (protein, part only; not given: anti-CD3 fragment and anti-albumin sdAb, part only) chain, part: EVQLVESGGGLVQPGGSLTLSCAASGRSVSFLSMAWYRQAPGKKRELVAGISANGSTDYIDSVKGRFTISRDNAKNSVYLQMNSLRAEDTAVYYCYAYRWSTRYTYWGQGTLVTVSSGGGGSGGGSGGGGSGGGSHHHHHH"
5,18 nM,"anti-DLL3 trispecific protein, DLL3 binder 4H06 (protein, part only; not given: anti-CD3 and anti-albumin domains, part only) chain, part: EVQLVESGGGLVQPGGSLTLSCAASGRSVSFLSMAWYRQAPGKKRELVAGISADGSTIYIDSVKGRFTISRDNAKNSVYLQMNSLRAEDTAVYYCYAYRWTTRYTYWGQGTLVTVSSGGGGSGGGSGGGGSGGGSHHHHHH"
6,15 nM,"anti-DLL3 trispecific protein, DLL3 binder 4G02 (protein, part only; not given: CD3 binder and albumin binder, part only) chain, part: EVQLVESGGGLVQPGGSLTLSCAASGSSVKFLSMAWYRQAPGKKRELVAGISRDGSTDYIDSVKGRFTISRDNAKNSVYLQMNSLRAEDTAVYYCYAYRWTTRHTYWGQGTLVTVSSGGGGSGGGSGGGGSGGGSHHHHHH"
7,15 nM,"anti-DLL3 trispecific protein, DLL3 binder 4F02 (protein, part only; not given: anti-CD3 fragment and anti-albumin domain, part only) chain, part: EVQLVESGGGLVQPGGSLTLSCAASGSTVSFLSMAWYRQAPGKKRELVAGISHDGSTDYIDSVKGRFTISRDNAKNSVYLQMNSLRAEDTAVYYCYAYRWTTRYTYWGQGTLVTVSSGGGGSGGGSGGGGSGGGSHHHHHH"
8,15 nM,"anti-DLL3 trispecific protein, DLL3 binder 3B06 (protein, part only; not given: anti-CD3 fragment and anti-albumin sdAb, part only) chain, part: EVQLVESGGGLVQPGGSLTLSCAASGKSVSFLSMAWYRQAPGKKRELVAGISKDGSTDYIDSVKGRFTISRDNAKNSVYLQMNSLRAEDTAVYYCYAYRWTTRYTYWGQGTLVTVSSGGGGSGGGSGGGGSGGGSHHHHHH"
9,16 nM,"anti-DLL3 trispecific protein, DLL3 binder 4B06 (protein, part only; not given: anti-CD3 fragment and anti-albumin domain, part only) chain, part: EVQLVESGGGLVQPGGSLTLSCAASGSRVSFLSMAWYRQAPGKKRELVAGISADGSTDYFDSVKGRFTISRDNAKNSVYLQMNSLRAEDTAVYYCYAYRWTRRYTYWGQGTLVTVSSGGGGSGGGSGGGGSGGGSHHHHHH"
10,16 nM,"anti-DLL3 trispecific protein, DLL3 binder 3E01 (protein, part only; not given: anti-CD3 fragment and anti-albumin sdAb, part only) chain, part: EVQLVESGGGLVQPGGSLTLSCAASGSSVKFLSMAWYRQAPGKKRELVAGISADGSTMYIDSVKGRFTISRDNAKNSVYLQMNSLRAEDTAVYYCYAYRWHTRYTYWGQGTLVTVSSGGGGSGGGSGGGGSGGGSHHHHHH"
11,16 nM,"anti-DLL3 trispecific protein, DLL3 binder 4H09 (protein, part only; not given: anti-CD3 and anti-albumin domains, part only) chain, part: EVQLVESGGGLVQPGGSLTLSCAASGSSVSKLSMAWYRQAPGKKRELVAGISADGSTDYRDSVKGRFTISRDNAKNSVYLQMNSLRAEDTAVYYCYAYRWTYRYTYWGQGTLVTVSSGGGGSGGGSGGGGSGGGSHHHHHH"
12,18 nM,"anti-DLL3 trispecific protein, DLL3 binder 4B05 (protein, part only; not given: anti-CD3 fragment and anti-albumin domain, part only) chain, part: EVQLVESGGGLVQPGGSLTLSCAASGSRVSFLSMAWYRQAPGKKRELVAGISADGHTDYIDSVKGRFTISRDNAKNSVYLQMNSLRAEDTAVYYCYAYRWTTRYTHWGQGTLVTVSSGGGGSGGGSGGGGSGGGSHHHHHH"
13,20 nM,"anti-DLL3 trispecific protein, DLL3 binder 3E03 (protein, part only; not given: CD3 binder and albumin binder, part only) chain, part: EVQLVESGGGLVQPGGSLTLSCAASGSSVRFLSMAWYRQAPGKKRELVAGISGDGSTDYIDSVKGRFTISRDNAKNSVYLQMNSLRAEDTAVYYCYAYRWMTRYTYWGQGTLVTVSSGGGGSGGGSGGGGSGGGSHHHHHH"
14,17 nM,"anti-DLL3 trispecific protein, DLL3 binder 3G011 (protein, part only; not given: anti-CD3 fragment and anti-albumin sdAb, part only) chain, part: EVQLVESGGGLVQPGGSLTLSCAASGSRVSFLSMAWYRQAPGKKRELVAGISADGSTGYIDSVKGRFTISRDNAKNSVYLQMNSLRAEDTAVYYCYAYRWATRYTYWGQGTLVTVSSGGGGSGGGSGGGGSGGGSHHHHHH"
15,18 nM,"anti-DLL3 trispecific protein, DLL3 binder 4G07 (protein, part only; not given: anti-CD3 fragment and anti-albumin domain, part only) chain, part: EVQLVESGGGLVQPGGSLTLSCAASGSSVSFLSVAWYRQAPGKKRELVAGISANGSTDYIDSVKGRFTISRDNAKNSVYLQMNSLRAEDTAVYYCYAYRWTNRYTYWGQGTLVTVSSGGGGSGGGSGGGGSGGGSHHHHHH"
16,16 nM,"anti-DLL3 trispecific protein, DLL3 binder 3A06 (protein, part only; not given: anti-CD3 fragment and anti-albumin domain, part only) chain, part: EVQLVESGGGLVQPGGSLTLRCAASGSKVSFLSMAWYRQAPGKKRELVAGISADGSTDYVDSVKGRFTISRDNAKNSVYLQMNSLRAEDTAVYYCYAYRWTRRYTYWGQGTLVTVSSGGGGSGGGSGGGGSGGGSHHHHHH"
17,16 nM,"anti-DLL3 trispecific protein, DLL3 binder 3D05 (protein, part only; not given: CD3 binder and albumin binder, part only) chain, part: EVQLVESGGGLVQPGGSLTLSCAASGSSVRFLSMAWYRQAPGKKRELVAGISADGSTDYIDSVKGRFTISRDNAKNSVYLQMNSLRAEDTAVYYCYAYRWTRRYTYWGQGTLVTVSSGGGGSGGGSGGGGSGGGSHHHHHH"
18,16 nM,"anti-DLL3 trispecific protein, DLL3 binder 4C08 (protein, part only; not given: CD3 binder and albumin binder, part only) chain, part: EVQLVESGGGLVQPGGSLTLSCVASGSQVSFLSMAWYRQAPGKKRELVAGISADGSTDYFDSVKGRFTISRDNAKNSVYLQMNSLRAEDTAVYYCYAYRWTRRYTYWGQGTLVTVSSGGGGSGGGSGGGGSGGGSHHHHHH"
19,20 nM,"anti-DLL3 trispecific protein, DLL3 binder 3G02 (protein, part only; not given: CD3 binder and albumin binder, part only) chain, part: EVQLVESGGGLVQPGGSLTLSCAASGSSVSFLSMAWYRQAPGKKRELVAGISADGRTDYIDSVKGRFTISRDNAKNSVYLQMNSLRAEDTAVYYCYAYRWRTRYTYWGQGTLVTVSSGGGGSGGGSGGGGSGGGSHHHHHH"
20,17 nM,"anti-DLL3 trispecific protein, DLL3 binder 1H08 (protein, part only; not given: CD3 binder and albumin binder, part only) chain, part: EVQLVESGGGLVQPGGSLTLSCVASGSTFSINAMGWYRRAPGKQRELVAGISSDGSKVLADSVKGRFTISRDNAKNSVYLQMNSLRAEDTAVYYCYYFRLVSGSSMRYWGQGTLVTVSSGGGGSGGGSGGGGSGGGSHHHHHH"
21,17 nM,"anti-DLL3 trispecific protein, DLL3 binder 2E08 (protein, part only; not given: anti-CD3 fragment and anti-albumin sdAb, part only) chain, part: EVQLVESGGGLVQPGGSLTLSCVASGSRSSINAMGWYRRAPGKQRELVAGISADGSKVYADSVKGRFTISRDNAKNSVYLQMNSLRAEDTAVYYCYYFRTQSGSSMRYWGQGTLVTVSSGGGGSGGGSGGGGSGGGSHHHHHH"
22,18 nM,"anti-DLL3 trispecific protein, DLL3 binder 2H08 (protein, part only; not given: anti-CD3 fragment and anti-albumin domain, part only) chain, part: EVQLVESGGGLVQPGGSLTLSCVASGSTSSINAMGWYRRAPGKQRELAAGISKDGSKVYADSAKGRFTISRDNAKNSVYLQMNSLRAEDTAVYYCYYFRTVSGSSSRYWGQGTLVTVSSGGGGSGGGSGGGGSGGGSHHHHHH"
